# Experiment: soluble on expression in E. coli; label from the status in PepcDB or PDB records
row,Sequence,soluble on expression in E. coli
1,MGSDKIHHHHHHMYEFNDTIRGTPKVTFNLKTTIGGKVLEDELNNGFGTFRTLTVSGRDVVDLEHQTTSVLGRNGEYFHNATVEVRKLEIKAKISGKDNKSMRLQYEKLNKLIVSHNQVFLSFSDEPDRNYLGIFKSKDVPEEVSNEQIIGLTFICYNPFKMSDVKTKKGTSIQNGGLFQTKPIITLNLSSPTKEIKLLHVESQKYIRLTGTYTTDEIKIDMATGKITQNGRNILGDLDMINSRYFELLPGNNTLQCANAAITAEFREVYL,not soluble
2,MGSDKIHHHHHHMYEKYIVEGLSDREIAYLIGCGKATVVRARQKHGIYREDVKMCDDYTLDNISEDLRTFIDGLLLGDACITEKGNLLITQNKRYDWLEYVKHRFQQFGLNVYFHCYKYKRRTSEVIADLYVLSTSRYELFRQLRERWYPDGIKRIPNDLVINDEGLAQWYLGDGSLTKQKNGYKLELSTHGFTLDENKFLQQKLKLLYGFDFRISKKHQYRYLRLFKSKQVHAFCSIVEPFIPPSYRNKVRCLHDYQWLKSWDVI,not soluble
3,MGSDKIHHHHHHMYGLIVNKASGNGKGQRTWKKVEYELQIRNTPYLVRFTSGSGHATTIVKELLTEGVKTIIAVGGDGTINEVANGLVNHRVPLGIIPAGSGNDFARCLNIPMHYEKALHRIFENKQKKVDLLHLGQRHCLTVTGIGFDGKIAKTVNEAIYKNWFNQFGFGGLSYVLSMLEVLKDYRPTNIQITVDGKELFFSGVWLVAVANSPNYGGGIRICPEASYDDGLLNICVVHGMSKWQLLRLFPKAYKGKHVVMEQHVTLLTGKDVYVQSDTPVLVQSDGEPIMESPVRLQIKKGALSVV,not soluble
4,MGSDKIHHHHHHMYKMTDNELTQMGAVITTREIQQEPELWLETFKIYQEKKQAIDAFLGKIESEFNEPVRVVFTGAGSSAYVGDTAMPYLTENGDRNHFRFEAIDTTKIVSTPKQYLEKDTPTILVSFARSGNSPESVATVDIAEKYVKHLYQITITCAPEGKLALHAQEDDKNLVLMQPARSNDKGFAMTGSFSCMLLTTLLVFDAQHSDEQKETYVNAISKMGHEVIDRVDDIQKLVDTDFERIVYLGSGALGGLTREAQLKVLELTAGQKVTVFDTSMGFRHGPKSFVNSKTLLFDFVSNNAYTRQYDVDILEEVAGDEIAPVVMGIGVQSAHNFTGSNFNFANGDDSIPDGYMAFPDVMFAQTISLLSSIKVKNTPDTPSATGTVNRVVKGVTIHDFEG,not soluble
5,MGSDKIHHHHHHMYLKISHTTEYHYDEPVQYALQRLRLTPVNLPGQTVRNWKTLVDGAAIEVSYDDQFGNRTHLVSLDADRTTLCIEANGEVETEDRAGVFGAHQSYVPLWLYARETPLTKPGKRIRELAKAAGGATELERMHALMAIIHETVRYEQGETQVGTSAEEALERGKGVCQDHAHILISAARTLGLPARYVSGYLMMEDHPQQTASHAWADVHIAGLGWVGFDPANKVCPDDRYVRIASGLCYRDAAPVSGLVHGTGTETLKVAVTVEQQGQSQAQN,not soluble
6,MGSDKIHHHHHHMYLLDSAIAKQIVSRTMKIIGHNINVMNGQGMILGSGDPKRIGSIHEGALLAIAQNRNVEISQEVAASLHGVKPGINLPLHYQGQIIGVVGITGDPNELTHYGELLKMTAEMIVEQANLQDKLQWENRQREEFILQLIKAETDDRQLHRWAKQLDIDMSMPRVAAIIEISEKSTPIKIPKRPSDPLAIDLADTLQVNASDDRNHRVGETLKQVLHLLQYPDRGNLIAMTSMSQLVILKPAFLDGKQWDPELENQRIDRLLQRLPAQMNLNFKIALGHFFPENGGIARSYQTALETLALGKQLNPEGNKYLFEDYSLQVLLSGLKYDWRGQALAMPYQQLAKADKNGQLRKTLAAYITHFGDAQQCANTLFIHRNTLRYRLDKIQQITQADIQSLHGLLSLYLGQLIDSSKNTG,not soluble
7,MGSDKIHHHHHHMYMEKRQFIKDIAVNGDVNGLFLIASANQMQAKNGPFWRLEICDASGTLNAKIWSPLSASFETLTPGDVVHLEGRAGLFRDRIDISVDRMRVLAPYELEALDMGQFLVSSERDPAEMLTELLELCREVFTHRPWRKFVTGVLRNEELAEALKAAPAAKSVHHAYRGGLLEHILSVSGLCMRIADHYPEIDRQVLLAGAIFHDIGKAWELSGGLVNDYTDEGRLLGHIHIGLEQLEPFLRRSGLEHELAVHFKHLILSHHGEYEFGSPRRPKTREAMVLHYADNLDAKMAQLNSLFKGFEDGETGWTPFQPTLQRFLYNPVRTPETETVRRKRPETPREEQCSLLSKG,not soluble
8,MGSDKIHHHHHHMYPECAKLPTFLRTVHEDVDAQARSLFTLDQNYMQVDPGPFCGTMATCDFGTGLVVSFEQVNKRVLQVAAVPFGTAQVALILEAGEPTTHNQVGRIRNAGVVMAPGAEARLSAGANTRVCLISIAGEAADHLRSRYNFDPDSLRADIFLDPAETTALRGLVTEAYQRFSSPQADRSFDQASAAAFHEAVLSVTAWTCASSARTQNQHRVAGDCRTTALTAAIRLIDHNLHNPVTVEWLARTLGVSRRSLEQAFGEAFDTSPGRYIKVLRLNSLRQMLRDPSNAEVSIGDLAARCGLWHQGRLASEFRELFGVLPSEARG,not soluble
9,MGSDKIHHHHHHMYPKNFWYVGAMKHEVGRQLLARTLLEQPVVFFRRNDGSVAALADRCSHRRVSLSLGRLIGDEVQCGYHGLTFAGDGSCTSIPGQSRVPPSACVRSYPVVERDGFVWIWPGDPALANETLVPDYAEICSSGRYVGRPAEALLVEAPFLFNIENVLDLSHVTYAHPETVGTPEVALTRPTVDVSEAKVQVTRNWDKASTGPSFKNLFGWDFVKNSQRISFWPGANMLLEIEVEPVGNNDPTQIKRLRVPGPCTPSTSTTHFKFSALYRDFLPDNEALTVGMFEQFRKTVMEDKVLMENQQRNWALDGVEVIRRIEPSSSGGMMDIAVDHAPLAARRWLQRLAMAERSAPEIKAPGVLQG,not soluble
10,MGSDKIHHHHHHPAAVKKIIETGQTDNRVMHQLDILTNRFGGRVIGSDAYENAAEWMMREYKRWGIDVRLEEAGELPVGFNRGPWFGRLIGGDQAMDLHFVTPSYTSGTKGLQRGHVLIEPRTQEELDRMKHQLKGAWVLISGENVGWPVDRSAKGDSLRAAIKAENIEIEKQNAALMEENWSKGTKHAMKPLREMPGLFYKEMCEAGALGFIQSAPVPLRALYDRALLNDPHTTFDNLPEVCDIKLDEHQYKIIKQMVKERRNFWLEFDIRNHFKLGPVKYHNVVASIKGTKYPDEYVIISGHLDSYDVATGGIDCGTGIGPMMEAARMIALSGAKPKRTILFVAFAGEEFGLLGAKAYVKTHAKELGKIANLFNRDGGPTPPVGISVPQAMYDDFVEVCKPVKEIRADYPFEVKVAKPFKRPTQSGGTDASVFAVEGVPTFGFNTQDIKGYNFSYGEIWHTERDLYTKNIPEYQEHAATVTAVVALGIANLSKQLSREGMHKK,not soluble
11,MGSDKIHHHHHHPVWNPDNGNGTFTNPIMWGDWPDPDVIRVGDDFYFVSTSMHYVPGCPIATSKDLVNWKMAGYAVDRYDEDARYDLKGGDRYLRGSWAATIRHHNGKFYVGFCTPSWEGEGPGHFSICIADDVKGPWERTIFPEYLYDPGLLFDDDGKVYVFHGQGTLYVTELASDAKSVKGEKVKIWDKRFKNAHEFGGGYGMEGAHAYKINGKYYLTCPAGGTEGWQICLRSDNIYGPYEHKLIMNDSGSYPPNGLHQGGMVQLKNGDWWFIIMQDRGPIGRVPHLVPVKWVDGWPMLGSGGKDIITYPKPEVGKTYPFASPATTDEFNTSSLGLQWQWNHNPDNSRWSLKERKGHMRLKASYAESLKTARNTLTQRVQGPSSEATVELDVSGLKDGNVAGFGVFEFPYAYVAVEQTNGEKKIVMCNDGQTIETIDRFEGNKIWIRARVMDVGFRAVFYYSTDGKYFLPIGNELSMGLGLVWTANRFALFNFSKEKAGEDGYTDFNWFRFTNK,not soluble
12,MGSDKIHHHHHHSCGNKDKGTTVPEGNPSDREAMLKNVADNIVIPANAKFEIKLDNMIAKSDVFRNNPTVTTLSEYRIAWAEAYIEWQKIGIFDFGPAADVALNSYMNVYPANVSNINANILSGNANLEVFESYSAQGFPAIDYLINGSADTDDDIVALYVTGEDADKRKAYLLRLTNQMHAKFEAVNAAWKGDYRNTFVSSTGTGLNASTSVMVNGIVFYYERFIRSGKFGIPSGAMTGTPLNASVEAYYKKDIGKILAQTAQQAFVDYFNGKGVTTGIEGPSLKTYLNALDAKDATTKQPLSEIINNQFTVVDSKLNVLSDNLSNEVLTNKAAMVAVYNEMQKAVRMLKVDMTSALSVTITYTDNDGD,not soluble
13,MGSDKIHHHHHHSDDNKTTGATYDPNQPVTVESFMPVEGKLREKVIVKGSNFGTDKSKVKVYFVDEAAERLSTVIGIDNNTLYCLAPRQLPGGNRIKVIVDGKEVTTDGTFKYEQAQNVSTISGSASKDGNDDGDLASAKFKYMWGIAAVGNNTVLAYQRDDPRVRLISVDDNKVTTVHPGFKGGKPAVTKDKQRVYSIGWEGTHTVYVYMKASGWAPTRIGQLGSTFSGKIGAVALDETEEWLYFVDSNKNFGRFNVKTQEVTLIKQLELSGSLGTNPGPYLIYYFVDSNFYMSDQNLSSVYKITPDGECEWFCGSATQKTVQDGLREEALFAQPNGMTVDEDGNFYIVDGFKGYCLRKLDILDGYVSTVAGQVDVASQIDGTPLEATFNYPYDICYDGEGGYWIAEAWGKAIRKYAVE,not soluble
14,MGSDKIHHHHHHSEEIFNGQVTDGEHSGAQLNIVPTVSSESTETRAGFDPKTDWAAGDALGLFMYKSSGWGDAYPRYDAQNNKSTRQANGWSQASPVYLLVDKATIWAYYPYNQAVTDGTKIPVPINVGTSVDYMWGKSTNQVSVIETDARIPMKHALSQFVVRLKVSPEYHNDGNLTSAKLKATGAKFATTGTMNLNDGGKITFQPTSTELTWSPNTTVPAQGQQAVDYAAAIYPMTLAAGEVSLEVVIDGATYTYAIPQITWEAGKRYIYSITMRSNDAEIGGENGQSVTIEGWTSTEEDITLVPVK,not soluble
15,MGSDKIHHHHHHSNKKTVDPNPVVRDNIIHLSTAIKNVREEMMLSELVDSVSYIPLETNPNCMLGNYQRLTFSPQYIFYSNYCFDWNGQFLFRIGSQGQGACEDIYVHVADIVYLNNHFYGNASKIIEYDDRGKCTGKELSWFTQKTMDTAPVGHLVNQVCFAPAGENLMFYNFPDTVYFINTDYEFVAKRSMMPWGRKGGAPSMSGGDPRFKYTSYYKDTTLFYNFYTDTVFTVTPTSLMPRWVVELDEELRFPTRYLYEDGLLSEAFKCWESGNLENAKMIKLLDHKYMVSGVFETERFVFLSVYECMPFRELRKLPETPPLTAIYNKRTGETFAVKQVVDDLGGMKAFFPSWGAYNEKLLATIWPYKLKEFIEEEQSAGRTVAPQILNLMQRVREDDNPVLIIAHLKK,not soluble
16,MGSDKIHHHHHHTEDTFWKDETDFNLALTSCYTPLKNALNGGYYGTRGVMLRIARADEVDFRNDISDVYTVNRFTNSNTNSLTQGMFYQFYNALYRTNSIMQKLEEKKEQFSTDFQNSVKGECLFIRGFYLFQLAKEFKDAPLRLTASQSPSTFPLAKSSQADIWAQAKEDLKTAASLLPITNKIGKPTQGAAYAALGKIYVYEENWQEAINVLEPLTQNPYTYKLVEDFNWNFDDTHENNAESIFELLIEDVGGTDLWGDGENINSTQSNTRPKEYAAAEVGGWYEANPTQQIMDIFWKEKDKDGNFDYRARCSVAWDYEGCTYYQRPFREVFAQDKWKTYWILKYQNWKTQKDEPAPPKSFINERAIRYADVLLMLAEAYMNKGALDTSIGYINQIRRRANLNDYSGPITKEGVFEDLVHQRAIEFFVEGERFYDLRRWGLLEQTLKTCDDTRYKNYQTGKSDNINKFNYFPIPAKELDTNPLCTPSEGW,not soluble
17,MGSDKIHHHHHHTEDTVIKVSVLRGPSVIAFADWLENPPIIDNKKVQVKVVDSPDLAQALLIKQETDIAVLPMINAANLYNKGIKIKLAGCPIWGTLYLVEKTPLKEPALYVFGNGTTPDILTRYYLGRQRLDYPLNYAFNTAGEITQGILAGKVNRAVLGEPFLSIALRKDSSLRITADLNHLTDNDTLGFAQTAVVYTPTMEKYRIAFEDALRASCQKAVRYPKETIHSLEEHGIFAQGALTPKSIERCKIYYLSAIEAKDAVMGFLRLIEQYEPKAVGGRLPDAGFIPEKQ,not soluble
